Biological target: the molecule itself
Assay: SEC; analytical; 500 µg protein on Superdex 200 Increase 10/300 GL in PBS with 1 mM DTT, 0.3 mL/minute, 4 °C; stoichiometry estimated against standards

B1: recombinant maltose-binding protein (MBP)-tagged HAPSTR2 (natural protein, human, UniProt A0A7P0TBJ1 1-273, looked up)
chain: MEEQQKEGEAEVAEHWFSKWERQCLAEAEQEEQLPPELQEEAAAELAGLKSEKQKLWHLFQISATAVAQLYKDSGCQQQGLSMWDPFQNAAMAVTSLYKESGDAHQRSFDLGVQVGHQRRIKDVLEWVKKGRSTIRREDLISFLCGKVPPAPPPPRTPRTPPKPPTGVTSQAVATESSSSVDVDLQPFQEAIALHGLSGAMAGISMRSGDSPQDSGVASSGRRKTSFLEDDLNPFDSEELALHLDSGGIRKRTSAQCSDGITDSPIQKRNRMV
notes: HAPSTR2, human; Vector pDest-HisMBP (Addgene 11085); No cleavage of the tags is described; Homo-oligomer by SEC; also called MBP-HAPSTR2; H2; source: E. coli BL21 (DE3), purified (Ni-NTA, dialysis); not shown: MBP, N-terminal, kept
- binding result: binds

Reference: article PMC9834230, “The HAPSTR2 retrogene buffers stress signaling and resilience in mammals” (Nature Communications, 2023)
